From paper PMC12922802 (Cell, 2025)

Tests used:
SRSF1ΔIDR2 = test: right-angle light scattering
[1] = target: the molecule itself
[2] = target: the molecule itself; test: right-angle light scattering

SRSF1ΔIDR2 (domain or fragment) showed a threshold concentration for microphase separation (cμ) (SRSF1ΔIDR2) of 0.44 µM.

B1: SRSF7 (natural protein, human, UniProt Q16629 1-238, looked up)
chain: MSRYGRYGGETKVYVGNLGTGAGKGELERAFSYYGPLRTVWIARNPPGFAFVEFEDPRDAEDAVRGLDGKVICGSRVRVELSTGMPRRSRFDRPPARRPFDPNDRCYECGEKGHYAYDCHRYSRRRRSRSRSRSHSRSRGRRYSRSRSRSRGRRSRSASPRRSRSISLRRSRSASLRRSRSGSIKGSRYFQSPSRSRSRSRSISRPRSSRSKSRSPSPKRSRSPSGSPRRSASPERMD
For B1, the “stoichiometry N” value [1] was ~8 molecules per microphase and the “threshold concentration for microphase separation (cμ)” value (“threshold concentration” for short) [2] was 1 ± 0.14 µM.

B2: SRSF3 (natural protein, human, UniProt P84103 1-164, looked up)
chain: MHRDSCPLDCKVYVGNLGNNGNKTELERAFGYYGPLRSVWVARNPPGFAFVEFEDPRDAADAVRELDGRTLCGCRVRVELSNGEKRSRNRGPPPSWGRRPRDDYRRRSPPPRRRSPRRRSFSRSRSRSLSRDRRRERSLSRERNHKPSRSFSRSRSRSRSNERK
For B2, the “stoichiometry N” value [1] was ~93 molecules per microphase and the “threshold concentration” value [2] was 2 ± 0.14 µM.

B3: SRSF5 (natural protein, human, UniProt Q13243 1-272, looked up)
chain: MSGCRVFIGRLNPAAREKDVERFFKGYGRIRDIDLKRGFGFVEFEDPRDADDAVYELDGKELCSERVTIEHARARSRGGRGRGRYSDRFSSRRPRNDRRNAPPVRTENRLIVENLSSRVSWQDLKDFMRQAGEVTFADAHRPKLNEGVVEFASYGDLKNAIEKLSGKEINGRKIKLIEGSKRHSRSRSRSRSRTRSSSRSRSRSRSRSRKSYSRSRSRSRSRSRSKSRSVSRSPVPEKSQKRGSSSRSKSPASVDRQRSRSRSRSRSVDSGN
With B3 the “stoichiometry N” value [1] was ~14 molecules per microphase and the “threshold concentration” value [2] was 9.5 ± 0.71 µM.
